The text below walks through data of patent US20210030857A1 (NGM BIOPHARMACEUTICALS, published 2021).

Where “and” joins values, the source holds several entries; their conditions need not be identical. Identical values can stand only once. Like-named read-outs stand apart in the source and are kept apart here.

As a reminder, the Kd is the free concentration of one partner at which half of the binding sites on the other are occupied at equilibrium, for simple one-to-one binding.

For test [1], the target named is human beta klotho / human FGFR1c receptor complex on cells (human, UniProt Q86Z14 1-1044; P11362 22-822). The test is described as follows: cell-based or functional assay.
Test [2] deals with T1, human beta klotho protein (soluble, used in Biacore) (human, UniProt Q86Z14 53-997, limits assumed).
T1 construct: also called HuKLB; huKLB
T1 sequence: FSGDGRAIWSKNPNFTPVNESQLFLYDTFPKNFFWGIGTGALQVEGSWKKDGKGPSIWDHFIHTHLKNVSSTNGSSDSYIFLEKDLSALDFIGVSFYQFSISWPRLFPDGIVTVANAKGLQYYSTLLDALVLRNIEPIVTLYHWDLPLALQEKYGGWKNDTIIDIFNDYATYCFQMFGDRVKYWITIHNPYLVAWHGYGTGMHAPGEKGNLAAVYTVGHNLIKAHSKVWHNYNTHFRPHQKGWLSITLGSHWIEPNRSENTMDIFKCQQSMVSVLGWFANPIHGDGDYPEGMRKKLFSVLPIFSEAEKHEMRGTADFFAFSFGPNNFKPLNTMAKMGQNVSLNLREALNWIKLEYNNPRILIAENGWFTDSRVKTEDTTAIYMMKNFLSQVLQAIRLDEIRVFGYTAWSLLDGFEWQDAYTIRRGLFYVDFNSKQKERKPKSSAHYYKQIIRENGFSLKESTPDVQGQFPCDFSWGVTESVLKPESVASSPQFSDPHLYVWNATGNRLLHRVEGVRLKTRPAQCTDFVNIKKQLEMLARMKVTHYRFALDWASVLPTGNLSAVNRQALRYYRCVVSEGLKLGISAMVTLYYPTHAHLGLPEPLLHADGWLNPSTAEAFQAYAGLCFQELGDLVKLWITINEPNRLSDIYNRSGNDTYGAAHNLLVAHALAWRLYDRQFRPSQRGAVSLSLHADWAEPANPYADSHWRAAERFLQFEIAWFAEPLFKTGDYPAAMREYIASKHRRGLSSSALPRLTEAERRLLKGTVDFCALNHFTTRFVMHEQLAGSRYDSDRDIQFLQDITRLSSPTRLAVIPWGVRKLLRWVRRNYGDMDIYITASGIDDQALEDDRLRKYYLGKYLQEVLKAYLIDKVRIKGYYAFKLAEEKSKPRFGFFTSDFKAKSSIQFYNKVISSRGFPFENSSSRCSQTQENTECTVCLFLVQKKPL
The test is described as follows: Biacore SPR (as in Example 2). In general terms: SPR reads the build-up and loss of mass on a sensor chip optically.

In test [3] the target is T2, cynomolgus monkey beta klotho protein (soluble, used in Biacore) (cynomolgus monkey (Macaca fascicularis), UniProt Q86Z14 53-996 (human entry), limits assumed).
T2 construct: Protein in solution; also called Cyno KLB; cyKLB
T2 chain: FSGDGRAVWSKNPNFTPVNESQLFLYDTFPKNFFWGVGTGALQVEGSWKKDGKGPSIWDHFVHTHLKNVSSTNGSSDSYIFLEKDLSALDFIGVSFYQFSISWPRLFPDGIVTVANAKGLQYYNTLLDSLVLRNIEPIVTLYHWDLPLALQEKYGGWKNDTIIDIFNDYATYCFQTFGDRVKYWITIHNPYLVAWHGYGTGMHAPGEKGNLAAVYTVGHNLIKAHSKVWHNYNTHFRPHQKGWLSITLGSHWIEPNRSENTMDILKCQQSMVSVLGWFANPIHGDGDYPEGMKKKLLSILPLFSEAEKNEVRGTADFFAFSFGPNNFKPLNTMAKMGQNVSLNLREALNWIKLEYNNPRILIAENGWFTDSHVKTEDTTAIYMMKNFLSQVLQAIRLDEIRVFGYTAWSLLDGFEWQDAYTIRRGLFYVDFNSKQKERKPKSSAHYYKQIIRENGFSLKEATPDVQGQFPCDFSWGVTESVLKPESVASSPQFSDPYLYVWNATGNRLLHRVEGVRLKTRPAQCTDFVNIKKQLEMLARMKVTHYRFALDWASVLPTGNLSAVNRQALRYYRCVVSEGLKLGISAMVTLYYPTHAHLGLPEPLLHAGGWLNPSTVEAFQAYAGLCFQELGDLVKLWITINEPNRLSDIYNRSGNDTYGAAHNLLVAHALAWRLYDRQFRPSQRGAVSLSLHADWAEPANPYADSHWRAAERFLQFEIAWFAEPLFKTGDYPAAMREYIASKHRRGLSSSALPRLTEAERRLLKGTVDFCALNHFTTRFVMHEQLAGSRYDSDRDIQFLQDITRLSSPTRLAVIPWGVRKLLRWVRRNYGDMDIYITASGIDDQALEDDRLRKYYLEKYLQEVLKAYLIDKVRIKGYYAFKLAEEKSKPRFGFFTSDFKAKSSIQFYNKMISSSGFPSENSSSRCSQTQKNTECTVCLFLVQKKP
The test is described as follows: Biacore SPR (as in Example 2).

Test [4] concerns the target T1, human beta klotho protein (soluble, …). Nature of the test: Biacore SPR (as in Example 2). The source holds these as a separate data set.

Chain of human beta klotho / human FGFR1c receptor complex on cells (P11362 22-822 limits assumed, one chain of several): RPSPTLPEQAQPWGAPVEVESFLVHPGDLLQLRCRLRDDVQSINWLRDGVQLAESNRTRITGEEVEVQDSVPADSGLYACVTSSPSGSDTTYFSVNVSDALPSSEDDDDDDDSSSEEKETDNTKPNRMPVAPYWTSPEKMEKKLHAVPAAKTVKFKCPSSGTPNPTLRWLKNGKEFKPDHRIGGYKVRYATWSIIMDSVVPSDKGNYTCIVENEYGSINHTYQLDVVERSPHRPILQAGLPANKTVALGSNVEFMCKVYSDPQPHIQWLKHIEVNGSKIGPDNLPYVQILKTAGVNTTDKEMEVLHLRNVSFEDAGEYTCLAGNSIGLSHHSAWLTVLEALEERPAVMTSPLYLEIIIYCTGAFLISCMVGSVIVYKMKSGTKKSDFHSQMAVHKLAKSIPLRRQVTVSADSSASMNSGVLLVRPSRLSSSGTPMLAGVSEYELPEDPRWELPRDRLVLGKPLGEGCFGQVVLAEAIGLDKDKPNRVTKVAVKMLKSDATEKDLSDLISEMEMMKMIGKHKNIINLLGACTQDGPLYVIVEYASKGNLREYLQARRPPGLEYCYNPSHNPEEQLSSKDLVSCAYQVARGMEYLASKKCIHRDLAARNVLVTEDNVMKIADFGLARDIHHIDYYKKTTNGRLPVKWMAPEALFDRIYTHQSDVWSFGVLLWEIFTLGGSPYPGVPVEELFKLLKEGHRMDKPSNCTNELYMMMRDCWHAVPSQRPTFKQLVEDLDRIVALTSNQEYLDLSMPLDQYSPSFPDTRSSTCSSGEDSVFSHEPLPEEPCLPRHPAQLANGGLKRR

B1: antibody 5H23 (antibody, V domains shown)
VH: QVQLQQSGPELVKPGALVKISCKASGYTFTSYDINWVKQRPGQGLEWIGWIYPGDGSTKYNEKFKGKATLTADKSSRTAYMQLSSLTSENSAVYFCARSDYYGSRSFAYWGQGTLVTVSA
VL: DIVLTQSPASLAVSLGQRATISCRASKSVSTSGYVYMHWNQQKPGQPPKLLIYLASYLESGVPARFSGSGSGTDFTLNIHPVEEEDAAIYYCQHSRDLTFPFGGGTKLEIK
notes: Murine monoclonal antibody from hybridoma; also called 5H23-Alexa647 (labelled form)
In the case of B1, the EC50-adipocyte in test [1] worked out at 3.4 nM. The EC50 reporter assay in test [1] is 0.27 nM and 0.51 nM. In addition, the Kd was determined as 0.05 nM in test [2] and 0.7 nM in test [3].

B2: humanized 5H23 antibody (VH SEQ ID NO: 271 and VL SEQ ID NO: 276) (antibody, V domains shown)
VH: QVQLQQSGAEVKKPGASVKVSCKASGYTFTSYDINWVRQAPGQGLEWIGWIYPGDGSTKYNEKFKGKATITRDTSASTAYMELSSLRSEDTAVYFCARSDYYGSRSFAYWGQGTLVTVSS
VL: DIVMTQSPDSLAVSLGERATINCRASKSVSTSGYVYMHWYQQKPGQPPKLLIYLASYLESGVPDRFSGSGSGTDFTLTISSVQAEDVAVYYCQHSRDLTFPFGGGTKLEIK
notes: also called h5H23; h5H23 (Prep 1)
For B2, the Kd in test [4] is 0.64 nM and 0.58 nM.
